Results taken from patent US20170101455A1.

Key:
Insulin receptor [1] = test: SPR (BIACORE 3000), insulin receptor immobilised on CM5 chip; Test 2
Insulin receptor [2] = test: SPR (BIACORE 3000), insulin receptor immobilised on CM5 chip; Test 3
Insulin receptor [3] = test: SPR (BIACORE 3000), insulin receptor immobilised on CM5 chip; Test 4
Insulin receptor [4] = test: SPR (BIACORE 3000), insulin receptor immobilised on CM5 chip; Test 5

Kd (Insulin receptor [1]): 781 nM
ka relative to native human insulin (Insulin receptor [1]): 3.9%
kd relative to native human insulin (Insulin receptor [1]): 77.2%
koff (Insulin receptor [1]): 0.0078 s⁻¹
kon (Insulin receptor [1]): 9000 M⁻¹ s⁻¹
receptor binding affinity (KD) relative to native human insulin (Insulin receptor [1]): 5.9%
Kd (Insulin receptor [2]): 1240 nM
ka relative to native human insulin (Insulin receptor [2]): 2.7%
kd relative to native human insulin (Insulin receptor [2]): 54.5%
koff (Insulin receptor [2]): 0.00585 s⁻¹
kon (Insulin receptor [2]): 5000 M⁻¹ s⁻¹
receptor binding affinity (KD) relative to native human insulin (Insulin receptor [2]): 5.1%
Kd (Insulin receptor [3]): 1140 nM
ka relative to native human insulin (Insulin receptor [3]): 2.1%
kd relative to native human insulin (Insulin receptor [3]): 56.1%
koff (Insulin receptor [3]): 0.0069 s⁻¹
receptor binding affinity (KD) relative to native human insulin (Insulin receptor [3]): 3.7%
Kd (Insulin receptor [4]): 862 nM
ka relative to native human insulin (Insulin receptor [4]): 4.3%
kd relative to native human insulin (Insulin receptor [4]): 76.5%
koff (Insulin receptor [4]): 0.0074 s⁻¹
kon (Insulin receptor [4]): 9000 M⁻¹ s⁻¹
receptor binding affinity (KD) relative to native human insulin (Insulin receptor [4]): 5.9%
Substance: Native insulin-immunoglobulin Fc conjugate
